Measurements published in the supplement of paper PMC10126150.
± gives the standard deviation of the averaged measurements.

What follows are sequences tested on ATP (assay: switch fluorescence ratio, 500 uM ATP over buffer (Cy3 cluster intensity, sum of 5 cycles each) (fold (ratio)); higher = stronger signal-on switching upon ATP binding; sequences stand for … in TCGTCGGCAGCGTCAGATGTGTATAAGAGACAGTTTTTTTTTTTTTTTTTTTTTTTTT…TC). Conditions: aptamer strand: ATP DNA aptamer (quencher-CACCTGGGGGAGTATTGCGGAGGAAGG + anchor), 100 nM annealed; ATP concentration: 500 uM.
How it was run: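 Cy3-labelled switching-strand clusters on a modified Illumina MiSeq flow-cell were annealed to 100 nM quencher-labelled ATP aptamer, imaged in selection buffer, then imaged after 15 min with 500 uM ATP at 22 °C. Five buffer/ATP cycles ran, with NaOH stripping and re-annealing between them. The fluorescence ratio is summed target-cycle over summed buffer-cycle Cy3 intensity per cluster, averaged per switch-domain sequence. Clusters outside 100-1000 RFU were excluded.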
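Note: ATP exposure 15 min at 22 °C before imaging.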

| Sequence | switch fluorescence ratio |
| --- | --- |
| CAAAACGTAG | 1.01 ± 0.025 |
| CAAAAGGGAA | 1.02 ± 0.024 |
| CAAAAGGGCC | 1.021 ± 0.0042 |
| CAAAATGCTT | 0.99 ± 0.047 |
| CAAACCAGGA | 1.09 ± 0.07 |
| CAAAGAAAAT | 0.9943 ± 0.0062 |
| CAAAGAGGCG | 1.02 ± 0.057 |
| CAAAGGGGTG | 1.03 ± 0.044 |
| CAAAGGTACA | 1.008 ± 0.0063 |
| CAAAGGTTGC | 1 ± 0.013 |
| CAAAGTTGGA | 1.01 ± 0.017 |
| CAAATAACAT | 1.01 ± 0.015 |
| CAAATAAGTA | 1.01 ± 0.033 |
| CAAATAGTGG | 0.943 ± 0.034 |
| CAAATATACG | 1.23 ± 0.23 |
| CAAATCTTGT | 1.03 ± 0.027 |
| CAAATGGCTG | 1.04 ± 0.074 |
| CAAATGGTTA | 0.974 ± 0.01 |
| CAAATGTGCT | 0.986 ± 0.015 |
| CAAATTCGAG | 0.984 ± 0.0033 |
| CAAATTCGTC | 1.07 ± 0.015 |
| CAAATTGGTG | 1.083 ± 0.0018 |
| CAAATTTCAT | 0.985 ± 0.023 |
| CAACAAGGCA | 1.02 ± 0.0071 |
| CAACATCTAT | 1.02 ± 0.053 |

| Sequence | switch fluorescence ratio |
| --- | --- |
| CAACGAAGTG | 1 ± 0.069 |
| CAACGCGTTG | 1 ± 0.013 |
| CAACGGACTA | 1.246 ± 0.0095 |
| CAACGGTTGG | 1.01 ± 0.045 |
| CAACGTGGGG | 0.99 ± 0.017 |
| CAACGTTTTT | 1.01 ± 0.037 |
| CAACTAAAAA | 1.01 ± 0.032 |
| CAACTAAATT | 1.01 ± 0.025 |
| CAACTCTCTG | 1 ± 0.038 |
| CAACTGCGTG | 0.989 ± 0.013 |
| CAACTTCCCC | 1.22 ± 0.1 |
| CAAGAAAGTT | 0.964 ± 0.034 |
| CAAGAACGGT | 0.969 ± 0.0077 |
| CAAGACTTGC | 1.03 ± 0.045 |
| CAAGAGCGGT | 1.02 ± 0.047 |
| CAAGAGGGGC | 1 ± 0.026 |
| CAAGATTTAT | 0.99 ± 0.023 |
| CAAGGAAGAT | 1.02 ± 0.014 |
| CAAGGACGAG | 1.02 ± 0.041 |
| CAAGGATAGG | 0.9984 ± 0.0084 |
| CAAGGCAAGG | 1.07 ± 0.018 |
| CAAGGCATGG | 1.05 ± 0.033 |
| CAAGGCATTG | 0.978 ± 0.02 |
| CAAGGGATTG | 0.992 ± 0.0058 |
| CAAGGGCCCA | 0.994 ± 0.014 |

| Sequence | switch fluorescence ratio |
| --- | --- |
| CAAGGGGCAA | 0.964 ± 0.032 |
| CAAGGGGTCC | 1.01 ± 0.032 |
| CAAGGGTATT | 1.01 ± 0.017 |
| CAAGGGTGGC | 1.003 ± 0.0061 |
| CAAGGTAAGT | 1.03 ± 0.056 |
| CAAGGTACGA | 1.02 ± 0.043 |
| CAAGGTCAGC | 0.9798 ± 0.0071 |
| CAAGGTTTTT | 1.01 ± 0.021 |
| CAAGTCAAAG | 0.996 ± 0.039 |
| CAAGTCTGG | 0.985 ± 0.032 |
| CAAGTGTTCG | 0.996 ± 0.03 |
| CAAGTTATAC | 1.38 ± 0.15 |
| CAAGTTGAAA | 0.9693 ± 0.0034 |
| CAAGTTTTGT | 1.01 ± 0.012 |
| CAATAAAACA | 0.972 ± 0.013 |
| CAATAATTTG | 0.99184 ± 0.00043 |
| CAATAGGATG | 1.012 ± 0.0067 |
| CAATAGGCGC | 1.01 ± 0.021 |
| CAATAGGGGG | 1 ± 0.027 |
| CAATATAGGT | 0.967 ± 0.018 |
| CAATATATAC | 1.13 ± 0.043 |
| CAATATGCAG | 0.962 ± 0.012 |
| CAATATGTAT | 0.997 ± 0.063 |
| CAATATGTGC | 1.009 ± 0.004 |
| CAATCCTGGG | 0.989 ± 0.034 |

| Sequence | switch fluorescence ratio |
| --- | --- |
| CAATCTACGC | 1.11 ± 0.038 |
| CAATGAGTCT | 1.03 ± 0.035 |
| CAATGCACGG | 1.07 ± 0.0098 |
| CAATGCAGTG | 1 ± 0.019 |
| CAATGCGTTT | 0.998 ± 0.038 |
| CAATGGGCGT | 1.0067 ± 0.00057 |
| CAATGGTTCT | 0.993 ± 0.036 |
| CAATGTTATC | 1.01 ± 0.017 |
| CAATTCAGTT | 0.991 ± 0.024 |
| CAATTCTGTA | 0.997 ± 0.028 |
| CAATTGCTGG | 0.949 ± 0.035 |
| CAATTTAAGG | 0.997 ± 0.041 |
| CAATTTAGTC | 0.983 ± 0.022 |
| CAATTTCCCG | 1.01 ± 0.02 |
| CAATTTGCTG | 0.94 ± 0.026 |
| CAATTTTCTT | 1.02 ± 0.025 |
| CAATTTTGGT | 1.01 ± 0.031 |
| CAATTTTTAA | 0.9798 ± 0.0088 |
| CAATTTTTCG | 1.02 ± 0.048 |
| CAATTTTTTT | 1.08 ± 0.12 |
| CACAAAAGCG | 1.01 ± 0.042 |
| CACAAAAGTG | 1.02 ± 0.02 |
| CACAAACAGA | 1.12 ± 0.036 |
| CACAACTTAA | 0.9867 ± 0.0023 |
| CACAATGCAG | 1 ± 0.033 |
